Positions count from the first letter of the chain named.
What was measured:
[1] = target: the molecule itself; assay: Assembly column; screening of labeled lysates; self-assembly
Method: For fluorescence analysis, cells were lysed by sonication in 25 mM TRIS pH 7.5, 300 mM NaCl, 8.5 mM MgCl₂, 1 mM dithiothreitol (DTT) supplemented with 1 mM phenylmethanesulfonyl fluoride, and the lysates cleared by centrifugation. […] The labeling reaction was allowed to proceed at 37° C. for 30 min, after which the labeled lysates were analyzed by native PAGE or fluorescence SEC. […] Gels were imaged fluorescently using a Fotodyne gel imaging system equipped with appropriate LEDs and filters.

[2] = target: the molecule itself; assay: analytical ultracentrifugation c(s) distribution at 4.8 and 2.4 mg mL^-1 (FIG. 4); self-assembly
[3] = target: the molecule itself; assay: Assembly column; self-assembly
[4] = target: the molecule itself; assay: analytical SEC of purified protein; self-assembly

B1: T3-08, construct with peptide tag for fluorescent labeling, in labeled E. coli lysate (designed binder)
chain: MTEKEKMLAEKWYDANFDQTLINERLRAKVICFALNHTNPSATLKRKVLIDALFQTTTDNVSISIPFDTDYGWNVKLGKNVYVNTNCYFMDGGQITIGDNVFIGPNCGFYTATHPLNFHHRNEGFEKAGPIHIGSNTWFGGHVAVLPGVTIGEGSVIGAGSVVTKDIPPHSLAVGNPCKVVRKIDNDLPSETLNDETIK
modifications: peptide tag labeled with CoA-488 by AcpS
notes: also called tetrahedral design
- binding result [1]: binds

B2: O3-33, construct with peptide tag for fluorescent labeling, in labeled E. coli lysate (designed binder)
chain: MSQAIGILELTSIAAGMELGDAMLKSANVDLLVSKTISPGKFLLMLGGDIGAIQQAIETGTSQAGELLVDSLVLANIHPSVLPAISGLNSVDKRQAVGIVETWSVAACISAADRAVKGSNVTLVRVHMAFGIGGKCYMVVAGDVSDVALAVTVASSSAGAYGLLVYASLIPRPHEAMWRQMVEG
modifications: peptide tag labeled with CoA-488 by AcpS
notes: also called octahedral design
- binding result [1]: binds

B3: O3-33 with C-terminal (His)6 tag (designed binder)
chain: MSQAIGILELTSIAAGMELGDAMLKSANVDLLVSKTISPGKFLLMLGGDIGAIQQAIETGTSQAGELLVDSLVLANIHPSVLPAISGLNSVDKRQAVGIVETWSVAACISAADRAVKGSNVTLVRVHMAFGIGGKCYMVVAGDVSDVALAVTVASSSAGAYGLLVYASLIPRPHEAMWRQMVEGLEHHHHHH
notes: eight trimers self-assemble through the designed interface to a 24-subunit octahedral cage; Derived from PDB 3N79 with 9 mutations; also called 03-33; octahedral design
- binding result [2]: binds

B4: T3-10 with C-terminal (His)6 tag (designed binder)
chain: MTEKEKMLAEKWYDANFDQTLINERLRAKVICFALNHTNPVATMMRKVLIDALFQTTTDNVSISIPFDTDYGWNVKLGKNVYVNTNCYFMDGGQITIGDNVFIGPNCGFYTATHPLNFHHRNEGFEKAGPIHIGSNTWFGGHVAVLPGVTIGEGSVIGAGSVVTKDIPPHSLAVGNPCKVVRKIDNDLPSETLNDETIKLEHHHHHH
notes: Variant of T3-08 with 3 further mutations
- binding result [3]: binds

B5: T3-08 with C-terminal (His)6 tag (designed binder)
chain: B4 chain with V41S, M44L, M45K
notes: four trimers assemble to a 12-subunit tetrahedral cage; Derived from PDB 3FTT with 8 mutations; also called tetrahedral design
- binding result [4]: binds

From patent US20130274441A1 (University of California, published 2013)
